Test: yeast display, Sf9 membrane polyspecificity reagent, FACS + sequencing; frameworks hold sequencing errors
Summary of the method: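 Synthetic nanobody libraries on Saccharomyces cerevisiae BJ5465 were galactose-induced for 36–48 hours, stained 1 hour at 4 °C with 10% biotinylated, detergent-solubilized Sf9 membrane reagent and enriched on streptavidin microbeads. FACS then separated cells into low and high (top ~1%) gates by anti-HA (expression) and streptavidin (reagent binding) fluorescence. Genes were colony-PCR amplified, MiSeq 2 × 250 sequenced and CDR-length filtered. A clone's polyreactivity label is that of its gate of origin.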

| Sequence | polyreactivity (PSR sort gate) |
| --- | --- |
| QVQLVESGGGLVQAGGSLRLSCAASGSILKGYAMGWYRQAPGKERELVAAISGSGGSTHYADSVKGRFTISRDNAKNTVYLQMNSLKPEDTAVYYCAAAYKWTYYWGQGTQVTVSS | high polyreactivity |
| QVQLVESGGGLVQAGGSLRISCAASGRTLFGYAMGWYRQAPGKERELVAAITYGATSTYADSVKGRFTISRDNAKNTVYLQMNSLKPEDTAVYYCNAYTPTDGFDYWGQGTQVTVSS | low polyreactivity |
| QVQLVESGGGLVQAGGSLRLNCAASGSTFFGNAMGWYRQAPGKERELVAAISGSGGSTYYADSVKGRFTISRDNAKNTVYLQMNSLKPEDTAVYYCAKYYLTGLARYDYWGQGTQVTVSS | high polyreactivity |
| QVQLVEAGGGLVQAGGSLRLSCAASGNTLYGNAMGWYLQAPGKERELVAAISWSGGSTSYADSVKGRFTISRDNAENTVYLQMNSLKPEDTAVYYCATQGFYKDYSRYDYWGQGTQVTVSS | low polyreactivity |
| QVQLVESGGGLVQAGGSLRLSCAASGIIFGSNTMGWYRQAPGTERELVAAITSSDGSTHYADSVKGRFTISRDNAKNTVYLQMNRLKPEDTAVYYCAARKVTYGHSYGYDYWGQGTQVTVSS | low polyreactivity |
| QVQLVESGGGLVQAGGSLRLSCAASGLIFKYYAMGWYRPAPGKERELVAAITGRGGSTYYADSVKGRFTISRDNAMNTVYLQMNSLKPEDTAVYYCARRRTYSFNPVTYDWGQGTQVTVSS | high polyreactivity |
| QVQLEESGGGLVQGGGSLRLSCAGSGRIFQLNAMGRYRQAPGIERELVADIRWSSGSTYYADTVKGRFTISRDNAKNSVYFQMYSLKPEDTAVYFCAGRVLYVHRQVYKMDYWGQGTQVTVSS | high polyreactivity |
| QVQLVESGGGLVQAGGSLRLSCAASGFIFGRYTMGWSRQAPGKEGELVAAISGSDVSTYYADSVKGRFTISRDNAKNTVYLQLNSVKPEDTAVYYCAADAPWAYYEYDYWGQGTQVTVSS | low polyreactivity |
| QDHLVESWGGLIQAGCSLRISCAASGSITVYNAMGWYRQAPWKERELLAAITGGVTTNYADSVKGRFTISRDNAKTTFYLLMNSLKPEDTAVYYCAKSQIPFGLDSPVDYWGQGTQVNVSS | low polyreactivity |
| QVQHVESVGGLDQAGVSLRLSSSASGITFSYNAMGCSRQAPGKESEFVAAISSNSDSTYYADSVKGRFTISRDNAKNTVYLQMNSLKPEDTAVYYCAAETPDAPDYSGFYYWGQGTQVTVSS | low polyreactivity |
| QVQLVESGGGVVHAGGSLRLSCAASGRIFRKYAMGWYRQAPGKESEFVAAITWSGGSTYYADSVKGRFTISRDNAKNTVYLQMNSLKPEDTAVYYCNAENGYSWDVFSDYWGQGTQVTVSS | low polyreactivity |
| QVQLVESGGGLVQAGGTRRLSCAASGSIFYYYAMGWYRQAPGKERELVAAINRGVGSTFYADSVKGRFTISRDNAKNTVYLQMNSLKPEDTAVYYCAVELNQVTPGLGYITLDYWGQGTQVTVSS | low polyreactivity |
| QVQLVESGGGLVQAGGSLRLSCAASGSTFSTNARGWYRQAPGKERELVAAINWSTGSTHYADSVKGRFTISRDNAKNTVYLQMNSLKPEDTAVYFCAAEGPKQYDYWGQGYQVTVSS | low polyreactivity |
| QVQLVESGGGLVQAGGSLRLSWAASGITFYVYAMGWYRQAPGKERELVAAISRRGGSTSYADSVKGRFTISRDNAKNTVYLQMNSLKPEDTAVYYGAAGPFYGGIVRRYDYWGQGTQVTVSS | low polyreactivity |
| QVQLVESGGGLVQAGGSLRLSCAASGSTLGVNAMGWYRQAPGKEREFVAAITGRGGNTYYADSVKGRFTISRDNAKNTVYLQMNSLTPEDTAVYYCAARDKYTRYQSILDYYYWGQGTQVTVSS | high polyreactivity |
| QVQLVESGGGLVQAGGSLSLSCAASGRIFRRYAMGWYRQAPGKEREFVAAISYGGGSTYYADSVKGRFTISRDNAKNTVYLQMNSLKPEDTAVYYCNADVPKSLLLYYPWGYGYWGQGTQVTVSS | low polyreactivity |

| Sequence | polyreactivity (PSR sort gate) |
| --- | --- |
| QVQLVESGGGLVQAGGSLRLSCAASGRIFGAYAMGWYRPAPGKERELVAAISARGGRTYYADSVKGRFTISRDNAKNTVYLQMNSLKPEDTAVYYCAKTLRDPYRYDYWGQGTQVTVSS | high polyreactivity |
| QVQLVESGGGLVQAGGSLRLSCAASGSTFGSNAMGWYRQAPGKERELVAAITRRGGSTYYADSVKGRFTISRDKAKNTVYLQMNSLKPEDTAVYYCAAQIHPRRDYSAFDYWGQGTQVTVSS | low polyreactivity |
| QVQLVESGGGLVQAGGSLRLSCAASGFTFYNYAMGWYRQAPGKERELVAAITSRGGSTYYADSVKGRFTISRDYAKNTVYLQMNSLKPEDTAVYYCNAVAKLYYWRYDYWGQGTQVTVSS | low polyreactivity |
| QVQLVESGGGLVQAGGSLRLSCAASGSIFGKNAMGWYRQARGKERELVAAITWSGGSTYYADSVKGRFTISRENAKNTVYLQMNSLKPEDTAVYYCNAVRVRVTSHRIRQLDFGYWGQGTQVTVSS | low polyreactivity |
| QVQLVESGGGLVQAGGSLRLSCAASGSIFASNALGWYRQAPGKERELVAAIDTSGGSTYYADSVKGRFTISRDNAKNTVYLQMNSLKPEDTAVYYCNTDWRDEYYPRYRASKFDYWGQGTQVTVSS | low polyreactivity |
| QVQLVESGGGLVQAGGSLRLSCAASGSIFRYNAMGWYRQAPGKERELVAGITWGGGRTYYADSVKGRFTISRDNAKNTVYLQMNSLKPEDTAVYYCNAVRKYKGDSSFDYWGQGTQVTVSS | high polyreactivity |
| QVQLVESGGGLVQAGGSLRLSCAASGSIFGYNVMGWYRQAPGKERELVAGITSGGSTNYADSVKGRFTISRDNAKNTVYVQMNSLKPEDTAVYYCNAEGVFGDGRSGFYWYDYWGQGTQVTVSS | low polyreactivity |
| QVQLVESAGGLVQAGGSLRLSCAASGSILVLNAMGWSRQAPGKERELVAAITSRGTRTYYADSVKGRFTISRDNAKNTVYLQLNSLNPEDTAVYYCAAKAGYRYGSLAYYKYDYWGQGTQVTLSS | high polyreactivity |
| QVQLVESGGGLVQAGGSLRLSCAASGSILRSNAMGWYRQAPGKERELVATITNSGGSTYADSVKGCFTISRDNANNTVYLQMNSLKPEDTAVYYCAKAGAGESIAKYDYWGQGTQVTVSS | low polyreactivity |
| QVQLVESGGGLVQAGGSLRLSCAASGRIFHRYAMGWYRQAPGKERELVASISRGDSTNYADSVKGRFTISRDNAKNTVYLQMNSLKPEDTAVYYCAAVPRRSGHQRWGATYYYWGQGTQVTVSS | high polyreactivity |
| QVQLVESGGGLVQAGGSLRLSCSASGRTFGGNAMGWSRPAPGKERELVAAIARSGGTTYYADSVKGRFTISRDNAKNTVYLQMNSLKPEDTAVYYCNTRRYGAMYYWGQGTQVTVSS | high polyreactivity |
| QVQLVESGGGLVQAGGSLRLSCGASGSIFYGYAMGWYRQAPGKERELVASITYSGGSTYYADSVKGRFTISRDNAKNTVYLQMNSLKPEDTTVYYCAVIGYHYSAISPASQTRQGYDYWGQGTQVTVSS | low polyreactivity |
| QVQLVDSGGGLVQAGGSLRLSCAASGFTFYLYTMGWYRPAPGKERQLVATITSDGGTNYADSVKGRFTISRDNAKNTVYLQMNSLKPEDTAVYYCNAASRRGSRKQAKYDYWGQGTQVTVSS | low polyreactivity |
| QVQLVESRGGLVQAGGSLRLSCAASGSTFVRNAMGWYRQAPGKERELVAAISRSGGRTYYADSVMGRFTISRDNAKNTVYLQMNSLKPDDTAVYYCAKKRSKAISFDYWGQGTQVTVSS | high polyreactivity |
| QVQLVESAGGLVQEGGSLRLSCAASGRIFGPYALGWYRQAPGKERELVAAISFSGSGTYYAASVKGRFTISRDNANNTVYLQIYSLKPEDNAVYYCAADGVYIDSNNRNTSDYWGQGTQVTVSS | low polyreactivity |
